Source: US20190300590A1 (PROTAGONIST THERAPEUTICS, published 2019)
*1 amine or outer side, *2 acyl side, *3 side chain or, on linkers, in order; H or OH if unused. Bridges are numbered along the chain shown (N, C = ends). Primed or numbered codes have the meaning given here. [ ]: non-standard residue; d: D form. Phe(4-(2-acetylaminoethoxy))″ = 4-(2-acetylaminoethoxy)phenylalanine, CC(=O)NCCOc1ccc(C[C@H](N[*:1])C(=O)[*:2])cc1; 2Nal = N[C@@H](Cc1ccc2ccccc2c1)C(=O)O; AEF = NCCOc1ccc(C[C@H](N)C(=O)O)cc1; Pen = CC(C)(S)[C@H](N)C(=O)O; αMeK = C[C@](N)(CCCCN)C(=O)O; Abu = CC[C@H](N)C(=O)O; Dap = NC[C@H](N)C(=O)O; Aib = CC(C)(N)C(=O)O

T1: IL23R_huFC (human, UniProt Q5VWK5 24-353)
T1 sequence (looked up): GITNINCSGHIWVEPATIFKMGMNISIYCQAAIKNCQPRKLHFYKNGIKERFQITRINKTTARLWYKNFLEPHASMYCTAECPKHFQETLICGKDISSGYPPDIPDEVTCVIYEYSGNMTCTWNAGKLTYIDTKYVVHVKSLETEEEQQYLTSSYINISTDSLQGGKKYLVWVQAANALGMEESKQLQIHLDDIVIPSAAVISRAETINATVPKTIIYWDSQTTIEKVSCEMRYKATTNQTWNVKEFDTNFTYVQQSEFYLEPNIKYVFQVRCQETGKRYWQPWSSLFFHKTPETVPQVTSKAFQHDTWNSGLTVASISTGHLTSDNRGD

T2: IL-23R on human cells (IL-23R-expressing DB cells; human NK cells) (human, UniProt Q5VWK5 24-629)
T2 sequence (looked up): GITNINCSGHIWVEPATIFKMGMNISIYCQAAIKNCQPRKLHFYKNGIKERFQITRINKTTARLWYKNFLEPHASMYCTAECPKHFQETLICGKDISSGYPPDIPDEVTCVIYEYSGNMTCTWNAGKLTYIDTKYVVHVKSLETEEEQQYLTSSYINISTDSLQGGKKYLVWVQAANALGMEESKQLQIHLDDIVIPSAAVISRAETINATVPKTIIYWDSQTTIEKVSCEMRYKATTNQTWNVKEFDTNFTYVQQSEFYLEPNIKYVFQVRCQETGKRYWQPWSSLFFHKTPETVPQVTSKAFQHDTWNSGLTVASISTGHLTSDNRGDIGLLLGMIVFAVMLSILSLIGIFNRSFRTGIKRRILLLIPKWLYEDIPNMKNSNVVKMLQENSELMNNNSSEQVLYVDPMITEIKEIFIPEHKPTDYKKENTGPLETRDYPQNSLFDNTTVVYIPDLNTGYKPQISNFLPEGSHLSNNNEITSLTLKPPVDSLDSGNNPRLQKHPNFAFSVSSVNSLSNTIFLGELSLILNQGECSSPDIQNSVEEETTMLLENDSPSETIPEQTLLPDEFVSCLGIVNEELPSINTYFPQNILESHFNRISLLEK

T3: IL-23R on DB cells (human, UniProt Q5VWK5 24-629)
T3 sequence (looked up): T2 sequence (looked up)

B1: Ac-[Pen]-QTWQ-[Pen]-[2-Nal]-[2-Nal]-[α-MeLys]-ENG-NH2 (peptide)
peptide: Ac-[Pen]QTWQ[Pen][2Nal][2Nal][αMeK]ENG-NH2
modifications: disulfide 1-6
SMILES: CC(=O)N[C@@H]1C(=O)N[C@@H](CCC(N)=O)C(=O)N[C@@H]([C@@H](C)O)C(=O)N[C@@H](Cc2c[nH]c3ccccc23)C(=O)N[C@@H](CCC(N)=O)C(=O)N[C@H](C(=O)N[C@@H](Cc2ccc3ccccc3c2)C(=O)N[C@@H](Cc2ccc3ccccc3c2)C(=O)N[C@@](C)(CCCCN)C(=O)N[C@@H](CCC(=O)O)C(=O)N[C@@H](CC(N)=O)C(=O)NCC(N)=O)C(C)(C)SSC1(C)C

Target: T1, IL23R_huFC
Test: human ELISA vs IL-23

IC50 [nM] | Binder
< 10 | Ac-R[Abu]QTWQC[AEF][2Nal][αMeK]ENN-NH2 (thioether 2-7) [Ac-Arg-Cyclo-[[Abu]-QTWQC]-[Phe[4-(2-aminoethoxy)]]-[2-Nal]-[α-MeLys]-ENN-NH2]

Target: T2, IL-23R on human cells …
Test: cell-based or functional assay

pStat3 HTRF IC50 [nM] | Binder
< 10 | Ac-R[Abu]QTWQC[AEF][2Nal][αMeK]ENN-NH2 (thioether 2-7) [Ac-Arg-Cyclo-[[Abu]-QTWQC]-[Phe[4-(2-aminoethoxy)]]-[2-Nal]-[α-MeLys]-ENN-NH2]

Target: T3, IL-23R on DB cells
Test: cell-based or functional assay

pStat3 HTRF IC50 [nM] | Binder
< 10 | XNTWQXFXLENA (Ac; Pen-Pen disulfide; Phe[4-(2-aminoethoxy)]; 2-Nal; hLeu; NH2) [Ac-[Pen]-NTWQ-[Pen]-[Phe[4-(2-aminoethoxy)]-[2-Nal]-[hLeu]-ENA-NH2]
< 10 | XNTWQXFXXKNN (Ac; Pen-Pen disulfide; Phe[4-(2-aminoethoxy)]; 2-Nal; Aib; Lys(Ac); NH2) [Ac-[Pen]-NTWQ-[Pen]-[Phe[4-(2-aminoethoxy)]-[2-Nal]-[Aib]-[Lys(Ac)]-NN-NH2]
10 to 25 | XQTWQXFXLENA (Ac; Pen-Pen disulfide; Phe[4-(2-aminoethoxy)]; 2-Nal; hLeu; NH2) [Ac-[Pen]-QTWQ-[Pen]-[Phe[4-(2-aminoethoxy)]-[2-Nal]-[hLeu]-ENA-NH2]
< 10 | XNTWQXFXXKNN (Ac; Pen-Pen disulfide; Phe(4-OMe); 2-Nal; Aib; Lys(Ac); NH2) [Ac-[Pen]-NTWQ-[Pen]-[Phe(4-OMe)]-[2-Nal]-[Aib]-[Lys(Ac)]-NN-NH2]
< 10 | Ac-[Pen]TTWQ[Pen][AEF][2Nal][Aib]K(Ac)NQ-NH2 (disulfide 1-6 (inferred)) [Ac-[Pen]-TTWQ-[Pen]-[Phe[4-(2-aminoethoxy)]-[2-Nal]-[Aib]-[Lys(Ac)]-NQ-NH2]
< 10 | XQTWQXFXXENN (Ac; Pen-Pen disulfide; Phe[4-(2-acetylaminoethoxy)]; 2-Nal; Aib; NH2) [Ac-[Pen]-QTWQ-[Pen]-[Phe[4-(2-acetylaminoethoxy)]-[2-Nal]-[Aib]-ENN-NH2]
< 10 | XNTWQXFXXENN (Ac; Pen-Pen disulfide; Phe(4-OMe); 2-Nal; Aib; NH2) [Ac-[Pen]-NTWQ-[Pen]-[Phe(4-OMe)]-[2-Nal]-[Aib]-ENN-NH2]
< 10 | XNTWQXFXXKNA (Ac; Pen-Pen disulfide; Phe(4-OMe); 2-Nal; Aib; Lys(Ac); βAla; NH2) [Ac-[Pen]-NTWQ-[Pen]-[Phe(4-OMe)]-[2-Nal]-[Aib]-[Lys(Ac)]-N-[βAla]-NH2]
< 10 | Ac-[Pen][Dap](Ac)TWQ[Pen][Phe(4-(2-acetylaminoethoxy))″][2Nal][αMeK](Ac)ENG-NH2 (disulfide 1-6 (inferred)) [Ac-[Pen]-Dap(Ac)TWQ-[Pen]-[Phe[4-(2-acetylaminoethoxy)]-[2-Nal]-[α-MeLys(Ac)]-ENG-NH2]
< 10 | XQTWQXFXXKNN (Ac; Pen-Pen disulfide; Phe[4-(2-aminoethoxy)]; 2-Nal; Aib; Lys(Ac); NH2) [Ac-[Pen]-QTWQ-[Pen]-[Phe[4-(2-aminoethoxy)]-[2-Nal]-Aib-[Lys(Ac)]-NN-NH2]
10 to 25 | B1
< 10 | XQTWQXFXXENN (Ac; Pen-Pen disulfide; Phe[4-(2-aminoethoxy)]; 2-Nal; Aib; NH2) [Ac-[Pen]-QTWQ-[Pen]-[Phe[4-(2-aminoethoxy)]-[2-Nal]-[Aib]-ENN-NH2]
< 10 | Ac-[Pen][Dap]TWQ[Pen][AEF][2Nal][αMeK]ENG-NH2 (disulfide 1-6 (inferred)) [Ac-[Pen]-[Dap]-TWQ-[Pen]-[Phe[4-(2-aminoethoxy)]-[2-Nal]-[α-MeLys]-ENG-NH2]
< 10 | XNTWQXFXXKNQ (Ac; Pen-Pen disulfide; Phe[4-(2-aminoethoxy)]; 2-Nal; Aib; Lys(Ac); NH2) [Ac-[Pen]-NTWQ-[Pen]-[Phe[4-(2-aminoethoxy)]-[2-Nal]-[Aib]-[Lys(Ac)]-NQ-NH2]
10 to 25 | XQTWQXYXXENG (Ac; Pen-Pen disulfide; 2-Nal; α-MeOrn; NH2) [Ac-[Pen]-QTWQ-[Pen]-Y-[2-Nal]-[α-MeOrn]-ENG-NH2]
< 10 | XQTWQXFXXKNN (Ac; Pen-Pen disulfide; Phe(4-OMe); 2-Nal; Aib; Lys(Ac); NH2) [Ac-[Pen]-QTWQ-[Pen]-[Phe(4-OMe)]-[2-Nal]-[Aib]-[Lys(Ac)]-NN-NH2]
< 10 | XNTWQXFXXKNA (Ac; Pen-Pen disulfide; Phe(4-OMe); 2-Nal; Aib; Lys(Ac); NH2) [Ac-[Pen]-NTWQ-[Pen]-[Phe(4-OMe)]-[2-Nal]-[Aib]-[Lys(Ac)]-NA-NH2]
< 10 | Ac-[Pen]TTWQ[Pen][AEF][2Nal][Aib]K(Ac)NN-NH2 (disulfide 1-6 (inferred)) [Ac-[Pen]-TTWQ-[Pen]-[Phe[4-(2-aminoethoxy)]-[2-Nal]-[Aib]-[Lys(Ac)]-NN-NH2]
< 10 | XQTWQXFXXENN (Ac; Pen-Pen disulfide; Phe(4-OMe); 2-Nal; Aib; NH2) [Ac-[Pen]-QTWQ-[Pen]-[Phe(4-OMe)]-[2-Nal]-[Aib]-ENN-NH2]
< 10 | XNTWQXFXXKNA (Ac; Pen-Pen disulfide; Phe[4-(2-aminoethoxy)]; 2-Nal; Aib; Lys(Ac); NH2) [Ac-[Pen]-NTWQ-[Pen]-[Phe[4-(2-aminoethoxy)]-[2-Nal]-[Aib]-[Lys(Ac)]-NA-NH2]
< 10 | XQTWQXFXXKNN (Ac; Pen-Pen disulfide; Phe[4-(2-acetylaminoethoxy)]; 2-Nal; Aib; Lys(Ac); NH2) [Ac-[Pen]-QTWQ-[Pen]-[Phe[4-(2-acetylaminoethoxy)]-[2-Nal]-[Aib]-[Lys(Ac)]-NN-NH2]
